Data reported in article PMC9490041 (2022).
Read-outs that look alike come from different tables or passages of the source. Ends that are not written are not given here. * marks the point of attachment. FITC = O=C1OC2(c3ccc(O)cc3Oc3cc(O)ccc32)c2ccc(NC(=S)*)cc21; Dansyl = CN(C)c1cccc2c(S(=O)(=O)*)cccc12

Key:
[1] = target: PSG (PSD-95), PDZ3-SH3-GK supramodule, wild type
[2] = target: PSG (PSD-95), PDZ3-SH3-GK supramodule, wild type; experiment: FP

Dansyl-KTESKKHGRWKLWFL [15 AA INSY2, dansylated (DNS-KTESKKHGRWKLWFL)]
Kd [1]: 161000 nM

{FITC}-PLVGQDIIDLQTEV [FITC-14 AA ADGRB1]
Kd [2]: 60000 nM

Dansyl-RDGCHRLPKIKETTV [15 AA FRPD4, dansylated (DNS-RDGCHRLPKIKETTV)]
Kd [1]: 760 nM

Dansyl-GKKVLDTKNYKQTSV [15 AA CRIPT, dansylated (DNS-GKKVLDTKNYKQTSV)]
Kd [1]: 490 nM

Dansyl-AQRGSFPPWVQQTRV [15 AA SynGap (DNS-AQRGSFPPWVQQTRV)]
Kd [1]: 550 nM
